The data set can be described thus: soluble on expression in E. coli; label from the status in PepcDB or PDB records.
Regarding “LDTTRESIRIGDNLGNVINDPISSREIETQNERDNDLINRYYRPDELEKVKVVDFKPIILNLDELDNDELIMALEEKPAYSRTGVLLSRIDNIRMRIAESAGRLKKDVVRSEESERPAFESERSSSPTTISFN”, the “soluble on expression in E. coli” value was “not soluble”.
For “MGSDKIHHHHHHMKTVNVHGFEASSKEEFQVIQSSLVKRIKLISDFKEEDIKLCAGVDLAYWTKGEKQYGVCCIIVIDYNTGEIIEKAYDYGEIEVPYMPGFLAFRELPLVIKTVKKLKNEPDIFMFDGNGYLHYNHMGIATHASFFLNKPTIGVAKSYLKVAGVDFEMPESFEGAFKDIVINEEVYGRVLRTKKDVKPIFVSCGNYIDLETCTKICSKLINNDSRLPITVRLADLETHKRRSELS”, the “soluble on expression in E. coli” value was “not soluble”.
“MSLIIAIQGGMAVGKTTALKIIEKVYPKIAISFEDISPVVDKINKHQLDNNKLDDYCEIQQLFIQHERDRYELVRDNEIVLMDYGAEEIAFYTQYFPKVAGYSWTLPSNLLLEVNRLKECFADYIIFLDADKTVLYQRQKNDFNRRRHFFKWYTHHLLPAKKHYLDTFSNVIHINTNHLNAEEVAEKIIDIIRKLTEGHHHHHH”: the “soluble on expression in E. coli” value was “soluble”.
For the sequence “SVPQISQPHFLLDGLSSQPLFNDIAAGIPSITAYSKNGLKIEFTFERSNTNPSVTVITIQASNSTELDMTDFVFQAAVPKTFQLQLLSPSSSIVPAFNTGTITQVIKVLNPQKQQLRMRIKLTYNHKGSAMQDLAEVNNFPPQSWQ”, the “soluble on expression in E. coli” value was “soluble”.
For “MENDLKKLTKEIVGRLKNKSVKELLSYAIFNEEEEAKFYADLAEKVSRPSVKALFRRMSEESKVHELLLRKLFSKYFPGEEPVKVDVPPVEVVPFISKFESIEDYLEGLRYCMESELFAKRTYVLLSQVAENEGVRMVANELASIEQNHYEEIKAVYELVKTFRDREMLPESLKSGAYLITNESVGKYLILDLIDENKKLKLFVRENPEIFRRLIGENPNVEITWIAKVNAPNTISPTETHVLKKDIESFFEKVTKEGKKGVVFIQNVAYLVANLGFKETVDLLLHAKDLAVYYGGYLIITANPEVFEKTEWALLKLEFEVLF” the value was “not soluble”; for “MVNVAVNGYGTIGKRVADAIIKQPDMKLVGVAKTSPNYEAFIAHRRGIRIYVPQQSIKKFEESGIPVAGTVEDLIKTSDIVVDTTPNGVGAQYKPIYLQLQRNAIFQGGEKAEVADISFSALCNYNEALGKKYIRVVSCNTTALLRTICTVNKVSKVEKVRATIVRRAADQKEVKKGPINSLVPDPATVPSHHAKDVNSVIRNLDIATMAVIAPTTLMHMHFINITLKDKVEKKDILSVLENTPRIVLISSKYDAEATAELVEVARDLKRDRNDIPEVMIFSDSIYVKDDEVMLMYAVHQESIVVPENIDAIRASMKLMSAEDSMRITNESLGILKGYLI”, “soluble”; for “MTEAQRHQILLEMLAQLGFVTVEKVVERLGISPATARRDINKLDESGKLKKVRNGAEAITQQRPRWTPMNLHQAQNHDEKVRIAKAASQLVNPGESVVINCGSTAFLLGREMCGKPVQIITNYLPLANYLIDQEHDSVIIMGGQYNKSQSITLSPQGSENSLYAGHWMFTSGKGLTAEGLYKTDMLTAMAEQKMLSVVGKLVVLVDSSKIGERAGMLFSRADQIDMLITGKNANPEILQQLEAQGVSILRVLEHHHHHH”, “not soluble”.
For “MNHKVHHHHHHIEGRHMDEYKQVDVGKDGMVATAHPLASEIGADVLKKGGNAIDAAVAIQFALNVTEPMMSGIGGGGFMMVYDGKTKDTTIIDSRERAPAGATPDMFLDENGKAIPFSERVTKGTAVGVPGTLKGLEEALDKWGTRSMKQLITPSIKLAEKGFPIDSVLAEAISDYQEKLSRTAAKDVFLPNGEPLKEGDTLIQKDLAKTFKLIRSKGTDAFYKGKFAKTLSDTVQDFGGSMTEKDLENYDITIDEPIWGDYQGYQIATTPPPSSGGIFLLQMLKILDHFNLSQYDVRSWEKYQLLAETMHLSYADRASYAGDPEFVNVPLKGLLHPDYIKERQQLINLDQVNKKPKAGDPWKYQEGSANYKQVEQPKDKVEGQ”, the “soluble on expression in E. coli” value is recorded as “soluble”.
Regarding “MSRRAGTPTAKKVTQLVNVEEHVEGFRQVREAHRRELIDDYVELISDLIREVGEARQVDMAARLGVSQPTVAKMLKRLATMGLIEMIPWRGVFLTAEGEKLAQESRERHQIVENFLLVLGVSPEIARRDAEGMEHHVSEETLDAFRLFTQKHGAK”, the “soluble on expression in E. coli” value is on record as “soluble”.
Take “MNADAPLKSYSGHHSETHKSESKKKKDKKTFEEEDDVENVKRKPAESSDDEVVVVVVKKDQKGKRGKKSKKPKKKQESSDDSSDNSDSSESSDDDKKSKKKKKKSKKDSSDSSDSSDSSDSSDDGKKKKKKKSKKDSSDDSSDSSDSSDSSDSSDDDKKKKKKSKKSKNKGSSSDSSDSSDDSSDDEKPKKKKKKSKKPKKAPKSDEEVTIKIIKKPKKKPEDLERRRHRVKKTEEHEEEKDKEEHHESNDENMEFDTRARGAPSSPKLTRRAKRSESSDDEVELQKTPEIDDNKPSRKDGDHDSDMEESEKSKKSSKKDHNHHHHHCCCGAQNEHEHTHHEEFSKTDKVVNKYHDCAKCQYKCPICT”: the “soluble on expression in E. coli” value is given as “not soluble”.
For the sequence “MDYSHQTSLVPCGQDKYISKNELLLHLKTYNLYYEGQNLQLRHREEEDEFIVEGLLNISWGLRRPIRLQMQDDNERIRPPPSSSSWHSGCNLGAQGTTLKPLTVPKVQISEVDAPPEGDQMPSSTDSRGLKPLQEDTPQLMRTRSDVGVRRRGNVRTPSDQRRIRRHRFSINGHFYNHKTSVFTPAYGSVTNVRINSTMTTPQVLKLLLNKFKIENSAEEFALYVVHTSGEKQKLKATDYPLIARILQGPCEQISKVFLMEKDQVEEVTYDVAQYIKFEMPVLKSFIQKLQEEEDREVKKLMRKYTVLRLMIRQRLEEIAETPATILEHHHHHH”, the “soluble on expression in E. coli” value is listed as “soluble”.
For “MGSDKIHHHHHHMEVAMEKIYYPRTIDSYLLEWKNERAHKPLLLRGARQVGKSSAVRQLGKTFKYFMEVNFERDKEIISVFTGNLKPKEITSRLAAFYGIPVVPGETLLFLDEIQACTPAIHSLWFFYEDYPELHVVAAGSLLEFALKKMAFFGVGRVRSLFMYPMSFDEFLAATGHAGWIEAKRNASPAEPLFEALHGKLVESFRNYLMVGGMPESVQNWVETEDYLKCQQVQDDIMLAYEDDFSKYEEKADPMLLRQTLRSVAQQIGGKFVYSNVQGNYRSEKIKSALELLKDAGLVRPAVHTAANGIPLGAEINEKFVKYIFLDSGLLLRLLGLENTGGTSEMSRLVLVGAASDLVNKGHITEMVAGLELLKYNTPVQRHDLYYWQNLSRGAQAEVDYVIVKDMRVVPLEVKAGTTGSMKSMYQFMEEKHLTYGIRTSLENFGKLEKADIIPLYALSNLYK” the value was “not soluble”; for “MSLANNKVHFIAIGGAVMHNLALALHHKGYLVSGSDDEIFEPSRTRLAAYNLLPAEMGWFPEKITTDLDAVILGMHARNDNPELQKARELGIKIYSFPEYIYEQSKDKQRIVIAGSHGKTTITAMIMHVLKTHKRKFDYLVGAKLDGFETMVQITDDAPIIIIEGDEYLTSPLDLTPKFLHYHHHIGLISGVAWDHINVYPTFEEYVKQFDAFADSTPKGGILIYSESDDLATLVADKPRPDVQAIGYSAPKHEIVNGITYLLTDKGKIELEVFGKHNLKNINAAKNVCLKIGITEAMFYDAIKTFKGAANRLEILGRGKHNVVFKDFAHAPSKLKATSKAVKKQFSDRKLIAVLELHTFSSLNKEFLSQYKDTYKAPDEPIVYFNPETVKHKRLEEITEADIIEAFDNPKLNVFTDSKKLEEFLFSHDWKHSNLLLMSSGNFGGIDLKKLTSHVLNQHAEGHHHHHH”, “soluble”; for “MGSDKIHHHHHHMFNNHEIDTILSTLRMEADPSLHPLFEQFEKFYEEKLWFQLSESLTKFFDDAKSTPLRLRLYDNFVSKFYDKINQLSVVKYLLASLKDSKDFDESLKYLDDLKAQFQELDSKKQRNNGSKDHGDGILLIDSEIARTYLLKNDLVKARDLLDDLEKTLDKKDSIPLRITNSFYSTNSQYFKFKNDFNSFYYTSLLYLSTLEPSTSITLAERQQLAYDLSISALLGDKIYNFGELLHHPIMETIVNDSNYDWLFQLLNALTVGDFDKFDSLIKVQISKIPILAQHESFLRQKICLMTLIETVFVKNIRMLSFEDISKATHLPKDNVEHLVMRAISLGLLKGSIDQVNELVTISWVQPRIISGDQITKMKDRLVEWNDQVEKLGKKMEARGQSIWV”, “not soluble”.
For “GLCDGHMHIESGMLTPAEFAAAVIPHGTTTMFTDPHEIANVLGLAGVRMMHDEALMQPVNIFTQMPSCAPSAPGLETTGYEITPEDVAEAMTWPGIIGLGEMMNFPGVTNADPKMLAEIAATQRAGKTVGGHYASPDLGPAFAAYVAGGPADDHEGTCEADAIARVRQGMRSMMRLGSAWYDVETQITAVTEKGLDPRNFILCTDDCHSATLVNDGHMNRVVRHAIACGCDPLIALQMATINTATHFGLERELGSTAPGRRADVILTSDLRDLPIELVIARGQVVAENGKIAVDCPHYDWPD”, the “soluble on expression in E. coli” value is on record as “not soluble”.
On to “MVLIIVRTLLMRISIKMIPLAYLNHFRKEHMKSRIHWAALGLLAAFAAQAETVTIEHRLGKTTLEQKPQRVVVIGVGALDAIDSFGIEPVAVSKFDGTPDYLAKYKSDKYPSAGSLFEPDFETIYTQKPDLIVIGPRASKSYDELSKIAPTIVFAAEADQGYWESTQQQWRNLGKVFAIEPAVEAKIEQVDAQFKSIMQYNQQHKSDAMLVMSSGGNLTTFGANSRFSSVYKDFGFSETVPVSKESSHGDLISFEYIREHNPKTLLVVDRDKVVTKGETNIRQTFENDLVKATTAYKNGHIAYLDVNAWYIAISGVKATEQMVADMKASVGMQ”, for which the “soluble on expression in E. coli” value is on record as “not soluble”.
For “MGSDKIHHHHHHMSKGTIRVLQLYPRDMNIYGDWGNALVLQQRLRWHGYTPELLEYNVGDEFPAGVDLIVGGGGQDSGQLVIQDDLLSRESTLKELAEAGTPMLLICGMYQLFGKFFKTRTGSVIPGIGVLDVETHGTDERLIGNVTVSSPEFGDVLGYENHSGQTTLGPGVRPLGSTPKGIGNNSKDGQEGARYRNIVASYLHGSLLPKNPAIADFLIRTAVERKYGSFTPGAPDDRYAVMAREHAARRPR” the value was “not soluble”.
Turning to “MAHHHHHHSLIQAVLFDLDGTLADTALDLGGALNTLLARHGLPAKSMDEIRTQASHGAAGLIKLGAGITPDHPDYARWRTEYLDEYDSRYAQDTTLFDGVNELIAELGKRGIKWGIITNKPMRFTDKLVPKLGFIIPPAVVVSGDTCGEPKPSVKPMLYACGQIHADPQHTLYVGDAERDIQAGRNAGMTTVLAEWGYIAPEDDTGSWQADFHIRTPLDLLECLDKIQPEG”, the “soluble on expression in E. coli” value was “soluble”.
With “MSETFTSVSQEEAGFRERARLSFDLDADICVIGAGLAGLSIALEAARLGASVAVLEGRHIGWNASGNQLGTVMPGFALPLTDLIERIGFEDARELWTLSKEGAEFVRANATEENMPGIAPSDGVLEVSNVDTGDRLISRLQMLHEDFDTEVEGWQVDRVRDVLKTDRYFHGVYYPKAFQVDGRKYVHGLAALARRAGARIFEDTPVVSIDHSGIRKRIVTPSARLRATHIVLAGNIHLGAPLRRLSETLLPVWRYAGITAPLGERVHEIIAFKGSVMDSDGVDHFRIVDGDRLMWESPETTWAARPQRFAGGVRRRIRSIFPQFGNVEIADMFGGATGQTVHGMPQIGQLRKGLWVASGFGRQGMNTSAMAGQMIARSILWGDERWRLFSPFELVWAGGATGRVAGQLVGIWGRASSAAAGTLARYRERARVKDREREARLAEANRAAGTGPRRPPPGVRPRPAPPPKPATEALEPASHDDSVSQLEHHHHHH”, the “soluble on expression in E. coli” value is recorded as “not soluble”.
For “VREVCSEQAETGPCRAMISRWYFDVTEGKCAPFFYGGCGGNRNNFDTEEYCMAVCGSA” the value was “soluble”; for “QVQLQESGGGLVQPGGSLRLSCAASGFAFSGYAMSWVRQAPGKGLEWVSGINRDGSTSYTAPVKGRFTISRDNAKNILYLQMNSLRPEDTAVYYCAKWLGGRDWYDRGQGTQVTVS”, “soluble”.

The record behind these values is the DeepSol protein solubility set.
